In the Immune Epitope Database (IEDB):

What was measured:
HLA-A*29:02 [1] = test: IEDB peptide-MHC binding, purified MHC/competitive/fluorescence; filed as Kd, often an IC50 or EC50 that approximates it; ≥ and ≤ were set here for values at or beyond the usual limits of such assays
HLA-A*02:06 = test: IEDB peptide-MHC binding, purified MHC/competitive/radioactivity; filed as Kd, often an IC50 or EC50 that approximates it; ≥ and ≤ were set here for values at or beyond the usual limits of such assays
HLA-A*02:01 = test: as above
HLA-A*02:17 = test: as above
HLA-A*24:03 [2] = test: IEDB peptide-MHC binding, purified MHC/competitive/fluorescence; filed as Kd, often an IC50 or EC50 that approximates it; ≥ and ≤ were set here for values at or beyond the usual limits of such assays; conditions: source organism: Escherichia coli 536
HLA-A*01:01 = test: as above
HLA-A*23:01 = test: IEDB peptide-MHC binding, purified MHC/competitive/radioactivity; filed as Kd, often an IC50 or EC50 that approximates it; ≥ and ≤ were set here for values at or beyond the usual limits of such assays; conditions: source organism: Vaccinia virus WR
HLA-A*24:02 = test: as above; conditions: source organism: Vaccinia virus WR
HLA-B*53:01 = test: as above; conditions: source organism: Dengue virus 1 Brazil/97-11/1997
HLA-B*57:01 [3] = test: as above
HLA-A*02:03 [4] = test: as above
HLA-B*15:01 = test: IEDB peptide-MHC binding, purified MHC/competitive/fluorescence; filed as Kd, often an IC50 or EC50 that approximates it; ≥ and ≤ were set here for values at or beyond the usual limits of such assays; conditions: source organism: Orthohantavirus tulaense
HLA-B*18:01 = test: as above; conditions: source organism: Orthohantavirus tulaense
HLA-A*26:01 = test: as above; conditions: source organism: Orthohantavirus tulaense
HLA-B*39:01 = test: as above; conditions: source organism: Orthohantavirus tulaense
HLA-B*27:03 = test: as above; conditions: source organism: Orthohantavirus tulaense
HLA-B*51:01 = test: as above; conditions: source organism: Orthohantavirus tulaense
HLA-B*46:01 = test: as above; conditions: source organism: Orthohantavirus tulaense
HLA-B*57:01 [5] = test: as above; conditions: source organism: Orthohantavirus tulaense
HLA-A*03:01 = test: IEDB peptide-MHC binding, purified MHC/direct/fluorescence; filed as Kd, often an IC50 or EC50 that approximates it; ≥ and ≤ were set here for values at or beyond the usual limits of such assays; conditions: source organism: Orthohantavirus tulaense
HLA-A*02:03 [6] = test: as above; conditions: source organism: Orthohantavirus tulaense
HLA-B*40:01 = test: as above; conditions: source organism: Orthohantavirus puumalaense
HLA-A*02:16 = test: as above; conditions: source organism: Orthohantavirus tulaense
HLA-A*02:12 = test: as above; conditions: source organism: Orthohantavirus tulaense
HLA-A*24:03 [7] = test: as above; conditions: source organism: Orthohantavirus tulaense
HLA-A*02:19 = test: as above; conditions: source organism: Orthohantavirus tulaense
HLA-A*29:02 [8] = test: as above; conditions: source organism: Orthohantavirus tulaense
HLA-A*02:11 = test: as above; conditions: source organism: Orthohantavirus tulaense
[9] = source organism: Dengue virus 2 Jamaica/1409/1983
[10] = source organism: Dengue virus 1 Brazil/97-11/1997
[11] = source organism: Dengue virus 2 Peru/IQT2913/1996
[12] = source organism: Dengue virus 2 Thailand/NGS-C/1944
[13] = source organism: Dengue virus 1 Singapore/S275/1990
[14] = source organism: Dengue virus 3 Martinique/1243/1999
[15] = source organism: Dengue virus 3 China/80-2/1980

**Q.** With AWISSMLLY as the sequence, how does the Kd (HLA-A*29:02 [1]; source organism: Brucella suis ATCC 23445) read?
**A.** 0.2 nM

**Q.** YQLAVTIMA was tested. Which Kd (HLA-A*02:06; [9]) did it give?
**A.** 19.8 nM

**Q.** And the Kd (HLA-A*02:01; [9])?
**A.** 42.3 nM

**Q.** What about the Kd (HLA-A*02:17; [9]) of the same sequence?
**A.** 10800 nM

**Q.** Which Kd (HLA-A*29:02 [1]; source organism: Yersinia pseudotuberculosis IP 31758) does the source give for KFGPYVSDY here?
**A.** 110 nM

**Q.** Which Kd (HLA-A*24:03 [2]) does the source give for PYKIPATVI here?
**A.** 1060 nM

**Q.** For APKDLLPWY, which Kd (HLA-A*29:02 [1]; source organism: Bacillus anthracis str. A0488) is on record?
**A.** 2540 nM

**Q.** With SWNNHSYLY as the sequence, how does the Kd (HLA-A*29:02 [1]; source organism: Mus musculus) read?
**A.** ≤ 0.1 nM

**Q.** What about the Kd (HLA-A*01:01; source organism: Mus musculus) of the same sequence?
**A.** 4280 nM

**Q.** For LNRPDIGLY, which Kd (HLA-A*29:02 [1]; source organism: Campylobacter jejuni) is on record?
**A.** 306 nM

**Q.** How did the Kd (HLA-A*01:01; source organism: Bacillus cereus G9241) turn out when LTMDREMLY was run?
**A.** 5.1 nM

**Q.** Which results are given for VTDTNKFDNY?
**A.** Kd (HLA-A*23:01): ≥ 70000 nM; Kd (HLA-A*24:02): ≥ 70300 nM; Kd (HLA-A*01:01; source organism: Vaccinia virus WR): 4.9 nM

**Q.** For EAVEDERFW, which Kd (HLA-B*53:01) is on record?
**A.** 80.8 nM

**Q.** What about the Kd (HLA-B*57:01 [3]; [10]) of the same sequence?
**A.** 84.5 nM

**Q.** What does the source list for MIIMLIPTV?
**A.** Kd (HLA-A*02:06; [11]): 7.5 nM; Kd (HLA-A*02:03 [4]; [11]): 4.4 nM; Kd (HLA-A*02:01; [12]): 3.89 nM; Kd (HLA-A*02:17; [12]): 0.634 nM

**Q.** Which Kd (HLA-B*57:01 [3]; [9]) does the source give for AVSMANIFRG here?
**A.** 37.2 nM

**Q.** Which results are given for LLATSIFKL?
**A.** Kd (HLA-A*02:03 [4]; [10]): 14.3 nM; Kd (HLA-A*02:01; [13]): 5 nM; Kd (HLA-A*02:17; [13]): 22.7 nM

**Q.** Which results are given for GIMTIDLDPV?
**A.** Kd (HLA-A*02:06; [14]): 83 nM; Kd (HLA-A*02:03 [4]; [14]): 25.2 nM; Kd (HLA-A*02:01; [15]): 11.7 nM; Kd (HLA-A*02:17; [15]): 2080 nM

**Q.** With QFLAPDDRY as the sequence, how does the Kd (HLA-A*29:02 [1]; source organism: Vibrio cholerae 2740-80) read?
**A.** 3.2 nM

**Q.** AESICSYWL was tested. Which Kd (HLA-B*15:01) did it give?
**A.** ≥ 20000 nM

**Q.** And the Kd (HLA-B*18:01)?
**A.** ≥ 20000 nM

**Q.** What about the Kd (HLA-A*26:01) of the same sequence?
**A.** ≥ 20000 nM

**Q.** What about the Kd (HLA-B*39:01) of the same sequence?
**A.** ≥ 20000 nM

**Q.** And the Kd (HLA-B*27:03)?
**A.** ≥ 20000 nM

**Q.** What about the Kd (HLA-B*51:01) of the same sequence?
**A.** ≥ 20000 nM

**Q.** And the Kd (HLA-B*46:01)?
**A.** ≥ 20000 nM

**Q.** What about the Kd (HLA-B*57:01 [5]) of the same sequence?
**A.** ≥ 20000 nM

**Q.** What about the Kd (HLA-A*03:01) of the same sequence?
**A.** ≥ 20000 nM

**Q.** What about the Kd (HLA-A*02:03 [6]) of the same sequence?
**A.** ≥ 20000 nM

**Q.** What about the Kd (HLA-B*40:01) of the same sequence?
**A.** 0.3 nM

**Q.** And the Kd (HLA-A*02:16)?
**A.** ≥ 20000 nM

**Q.** And the Kd (HLA-A*02:12)?
**A.** ≥ 20000 nM

**Q.** What about the Kd (HLA-A*24:03 [7]) of the same sequence?
**A.** ≥ 20000 nM

**Q.** What about the Kd (HLA-A*02:19) of the same sequence?
**A.** ≥ 20000 nM

**Q.** And the Kd (HLA-A*29:02 [8])?
**A.** ≥ 20000 nM

**Q.** What about the Kd (HLA-A*02:11) of the same sequence?
**A.** ≥ 20000 nM

**Q.** For VLNPYMPSV, which Kd (HLA-A*02:06; [9]) is on record?
**A.** 6.19 nM

**Q.** What about the Kd (HLA-A*02:03 [4]; [9]) of the same sequence?
**A.** 6.6 nM

**Q.** And the Kd (HLA-A*02:01; [9])?
**A.** 1.38 nM

**Q.** What about the Kd (HLA-A*02:17; [9]) of the same sequence?
**A.** 8.12 nM
